The values that follow come from paper doi:10.1101/2021.01.14.426634 (bioRxiv, 2021).

The target in data set [1] is Danio rerio calcium hemostasis modulator 1 (drCALHM1), full length, purified channel (Danio rerio) (UniProt E7F2J4). Description: cryo-EM structure.
Data set [2] has the same target. Description: cryo-EM structure. This is another data set of the same source.
Data set [3] has the same target. Nature of the data set: cryo-EM structure. This is another data set of the same source.
Data set [4] concerns the molecule itself. Description: cross-linking.
Data set [5] concerns the molecule itself. Description: cross-linking. The source holds these as a separate data set.

Values joined by “and” are separate entries in the source; they are usually repeats but may differ in a detail not shown here. Equal entries are not always repeated. Where two headings read alike, the source gives them in different places.

As to “Danio rerio calcium hemostasis modulator 1 (drCALHM1), full length, purified channel (from UniProt E7F2J4 1-346) (natural protein)”, the stoichiometry N in data set [1] is 8; in data set [2], 7; in data set [3], 7 and 8.

B1: Homo sapiens CALHM1 with a 2x FLAG tag at the C-terminus, expressed in HEK293T cells (natural protein, H. sapiens, UniProt Q8IU99 1-346, looked up)
chain: MMDKFRMIFQFLQSNQESFMNGICGIMALASAQMYSAFDFNCPCLPGYNAAYSAGILLAPPLVLFLLGLVMNNNVSMLAEEWKRPLGRRAKDPAVLRYMFCSMAQRALIAPVVWVAVTLLDGKCFLCAFCTAVPVSALGNGSLAPGLPAPELARLLARVPCPEIYDGDWLLAREVAVRYLRCISQALGWSFVLLTTLLAFVVRSVRPCFTQAAFLKSKYWSHYIDIERKLFDETCTEHAKAFAKVCIQQFFEAMNHDLELGHTHGTLATAPASAAAPTTPDGAEEEREKLRGITDQGTMNRLLTSWHKCKPPLRLGQEEPPLMGNGWAGGGPRPPRKEVATYFSKV
Turning to B1, the “stoichiometry N” value amounted to 8 in “cross-linking [4]” and 7 in the data set “cross-linking [5]”.

By stoichiometry N is commonly meant the number of molecules, sites or subunits per partner or assembly.
